The supplement of paper PMC9170038

System: MS2 coat protein
Assay: apparent KD of MS2 coat protein; designed switch direction (-1 OFF switch, 1 ON switch): -1; higher = weaker reporter binding
Summary of the method: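 On Illumina chips, designed RNA switches with common flanks were made by stalled E. coli RNA polymerase. Titrations with SNAP-549-labelled MS2 coat protein, doubling from 0.7 or 1.5 nM to 3 µM, were done with no input, with 200 uM small-molecule ligand, or with an oligonucleotide input. Apparent KD is the median per design over clusters, from curve fits of normalised cluster fluorescence.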

[1] = Eterna round: R95, input ligand: microRNA oligo, concentration not stated
[2] = input ligand: microRNA oligo, concentration not stated
[3] = Eterna round: R95, input ligand: FMN 200 uM
[4] = Eterna round: R95, input ligand: none

## AAGAGUAGAGGAUAUUGUUUAUGGCACAUGAGGAUCACCCAUGUAGCGAGAGUGGUGCCACAAGAAGGUUGCAUGA [Eternabot (L2) Solution 71] (Eterna round: R97, puzzle: Exclusion 5)
Input ligand: FMN 200 uM
  apparent KD of MS2 coat protein: 42.3 nM
Input ligand: none
  apparent KD of MS2 coat protein: 52.5 nM

## UUAUUCAGAGGAUAUGCGCAUAGAUAAGACUUUUUUUCUUAACAUGAGGAUCACCCAUGUAGAAGGCUGUAAUA [Ex2 #57] (Eterna round: R97, puzzle: Exclusion 2)
Input ligand: FMN 200 uM
  apparent KD of MS2 coat protein: 19.8 nM
Input ligand: none
  apparent KD of MS2 coat protein: 18.4 nM

## AAGAAACAUGAGGAUCACCCAUGUCAGGAUAUCUCGAAAAGCAUAGAAAUAUGCGAAGAGAGAAGGGACAAGAA [ChP Ext 10-04-2015] (puzzle: Exclusion 1)
[1]
  apparent KD of MS2 coat protein: 56.1 nM

## GGUAUGCAGGCUUUAGGUAACAUGAGGAUCACCCAUGUAGCAGGUCGUAACCAGGUCAUUGGUUCUCAACGCUCGUU [Eternabot (L2) Solution 46] (Eterna round: R97, puzzle: Sensor, turn-off variant 1)
Input ligand: FMN 200 uM
  apparent KD of MS2 coat protein: 31.4 nM
Input ligand: none
  apparent KD of MS2 coat protein: 34.4 nM

## GUUUACAAGCUAAGAUCCUACAUGAGGAUCACCCAUGUGGUCCGGUGACGUGAGUCACCGGACUUAGCUCGUCUUGA [salish99_S_TOV1_R5_092] (Eterna round: R97, puzzle: Sensor, turn-off variant 1)
Input ligand: FMN 200 uM
  apparent KD of MS2 coat protein: 32.4 nM
Input ligand: none
  apparent KD of MS2 coat protein: 31 nM

## UCUCGCAGGCAAGGAUAUCCUACAUUGUUCUGGCCCGGGCAUGUUACAUGAGGAUCACCCAUGUGGGAGAAGGUGCGCCAGGGC [Design 34] (Eterna round: R96, puzzle: Exclusion NG 2)
Input ligand: FMN 200 uM
  apparent KD of MS2 coat protein: 30.6 nM
[2]
  apparent KD of MS2 coat protein: 16.3 nM
Input ligand: none
  apparent KD of MS2 coat protein: 30.6 nM

## CUUUCGUGAGGAUAUGUGGCUUCGAAAAUGAGAUCGAGGCUACAGAAGGCACAUGAGGAUCACCCAUGUUCCUC [salish99_ex4_r4_215] (Eterna round: R97, puzzle: Exclusion 4)
Input ligand: FMN 200 uM
  apparent KD of MS2 coat protein: 400 nM
Input ligand: none
  apparent KD of MS2 coat protein: 35.6 nM

## UUAUUAUAUGUAGGAUAUGCAUAUUAUUAUUAUGCAGAAGGACAUGAGGAUCACCCAUGUAUAUUAUUAUUAUAUAUUAUGUAU [Title] (Eterna round: R96, puzzle: Exclusion NG 1)
[2]
  apparent KD of MS2 coat protein: 27.5 nM

## UUUAUCCGAGGAUAUACAGAAUGAAUGUGAAAUGAAUGAUGACAUGAGGAUCACCCAUGUAGAAGGCGGAUAUA [Default title] (Eterna round: R97, puzzle: Exclusion 2)
Input ligand: FMN 200 uM
  apparent KD of MS2 coat protein: 404 nM
Input ligand: none
  apparent KD of MS2 coat protein: 57.8 nM

## AAUGAUUGACGAGGAUAUUGUGGUGAAACACGACGAGAAGGCGUAUGUCACAUGAGGAUCACCCAUGUGAACUUUGUGGAUAUA [Ex NG1 #70] (Eterna round: R96, puzzle: Exclusion NG 1)
Input ligand: FMN 200 uM
  apparent KD of MS2 coat protein: 30.4 nM
[2]
  apparent KD of MS2 coat protein: 33.3 nM
Input ligand: none
  apparent KD of MS2 coat protein: 38.8 nM

## UUUGUAUAUGAAGGAUAUACUUAACAUGAGGAUCACCCAUGUGGUGUUGUGAGUGAGUGAGUUUAGUAGAAGGUCAAUGAUUUU [JMF's solution 71] (Eterna round: R96, puzzle: Exclusion NG 2)
Input ligand: FMN 200 uM
  apparent KD of MS2 coat protein: 531 nM
[2]
  apparent KD of MS2 coat protein: 218 nM
Input ligand: none
  apparent KD of MS2 coat protein: 317 nM

## AAGAAACAUGAGGAUCACCCAUGUCAGGAUAUCCGAAAAGAAAAGAAAAGAAAAGAAAGGAGAAGGGACAAAAG [Default title] (puzzle: Exclusion 1)
[3]
  apparent KD of MS2 coat protein: 40.7 nM
[1]
  apparent KD of MS2 coat protein: 26.6 nM
[4]
  apparent KD of MS2 coat protein: 76 nM

## AGGAUACAUGAGGAUCACCCAUGUGAGGAUAUACGAUAGCUCAGGAAGAGAUUAGUAUGUAGAAGGUGCGGGUG [Eternabot (L1) Solution 49] (Eterna round: R97, puzzle: Exclusion 1)
Input ligand: FMN 200 uM
  apparent KD of MS2 coat protein: 205 nM
Input ligand: none
  apparent KD of MS2 coat protein: 198 nM

## GAAAACGAAGAGGAUAUUUGAUAUCAAAGCUUCAAAGAAGGCUUCACAUGAGGAUCACCCAUGUGAUCUUCAAU [Mat - Exclusion 6 - JL Mod - D15] (Eterna round: R97, puzzle: Exclusion 6)
Input ligand: FMN 200 uM
  apparent KD of MS2 coat protein: 212 nM
Input ligand: none
  apparent KD of MS2 coat protein: 24.5 nM

## AAUAAUAGCGAGGAUAUCGUAUCGGAAACGAUACGAGAAGGCGUAACAUGAGGAUCACCCAUGUUCCUCAAUAA [Fiskers Ex 6 - 3] (puzzle: Exclusion 6)
[1]
  apparent KD of MS2 coat protein: 39.7 nM

## GGUUGUCGAGGAUAUACUAGGGACCGAUCGAUCGGAACUUCACAUGAGGAUCACCCAUGUAGAAGGCGACAAUC [Eternabot (L1) Solution 57] (Eterna round: R97, puzzle: Exclusion 2)
Input ligand: FMN 200 uM
  apparent KD of MS2 coat protein: 116 nM
Input ligand: none
  apparent KD of MS2 coat protein: 174 nM

## GUGUUUCGUGUAGGAUAUGUUUGUGGGUCGCGGGCAGAAGGACAUGAGGAUCACCCAUGUUGCGGGUUCGGUUUGUGCGGGCGC [-22, -20 kcal and 14% A] (Eterna round: R96, puzzle: Exclusion NG 1)
Input ligand: FMN 200 uM
  apparent KD of MS2 coat protein: 23.6 nM
[2]
  apparent KD of MS2 coat protein: 17.1 nM
Input ligand: none
  apparent KD of MS2 coat protein: 22.3 nM

## AUCCCGCGAGGAUAUACAUGAGGAUCACCCAUGUAGGUUCUGGAUGGGCGAAAUUUGUGUAGAAGGCGCACCAA [Tibeaqu] (Eterna round: R96, puzzle: Exclusion 3)
Input ligand: FMN 200 uM
  apparent KD of MS2 coat protein: 38.4 nM
[2]
  apparent KD of MS2 coat protein: 42.6 nM
Input ligand: none
  apparent KD of MS2 coat protein: 52 nM

## GGAUCGAGUGUGAGGAUAUGCUGGUCCUAAGAUCAGCAGAAGGCACAUGAGGAUCACCCAUGUGAAAACGGUCC [Mat - Exclusion 4 - JL Mod - D71] (Eterna round: R96, puzzle: Brourd's mod of Exclusion 4)
Input ligand: FMN 200 uM
  apparent KD of MS2 coat protein: 183 nM
[2]
  apparent KD of MS2 coat protein: 24.2 nM
Input ligand: none
  apparent KD of MS2 coat protein: 29.3 nM

## ACAUGUUAUCCAUGAUAUCACAUGAGGAUCACCCAUGUUAUGGCGAUUUUGAGGUGUAAGCUUUGUGCUCGACUUAU [JR_STOV1_Sub056] (Eterna round: R97, puzzle: Sensor, turn-off variant 1)
Input ligand: FMN 200 uM
  apparent KD of MS2 coat protein: 45 nM
Input ligand: none
  apparent KD of MS2 coat protein: 50 nM

## AAAUAACAAGCAAGAUCCUACAUGAGGAUCACCCAUGUGCUCGUCUUAUAAAGUACUAUCACGAAAGUGAUAGUACA [Sensor 3, v1 - 11] (puzzle: Sensor v3, turn-off variant 1)
[3]
  apparent KD of MS2 coat protein: 675 nM
[1]
  apparent KD of MS2 coat protein: 392 nM
[4]
  apparent KD of MS2 coat protein: 546 nM
